Results: patent US20230287348A1

Key:
[1] = biological target: CD123 antigen on AML cells (THP-1 cell line, primary AML blasts) (human) (UniProt P26951); assay: cell-based or functional assay
[2] = biological target: CD19 antigen on ALL cells (REH cell line, primary ALL blasts) (human) (UniProt P15391); assay: cell-based or functional assay
UniProt P15391, sequence (P15391 20-556): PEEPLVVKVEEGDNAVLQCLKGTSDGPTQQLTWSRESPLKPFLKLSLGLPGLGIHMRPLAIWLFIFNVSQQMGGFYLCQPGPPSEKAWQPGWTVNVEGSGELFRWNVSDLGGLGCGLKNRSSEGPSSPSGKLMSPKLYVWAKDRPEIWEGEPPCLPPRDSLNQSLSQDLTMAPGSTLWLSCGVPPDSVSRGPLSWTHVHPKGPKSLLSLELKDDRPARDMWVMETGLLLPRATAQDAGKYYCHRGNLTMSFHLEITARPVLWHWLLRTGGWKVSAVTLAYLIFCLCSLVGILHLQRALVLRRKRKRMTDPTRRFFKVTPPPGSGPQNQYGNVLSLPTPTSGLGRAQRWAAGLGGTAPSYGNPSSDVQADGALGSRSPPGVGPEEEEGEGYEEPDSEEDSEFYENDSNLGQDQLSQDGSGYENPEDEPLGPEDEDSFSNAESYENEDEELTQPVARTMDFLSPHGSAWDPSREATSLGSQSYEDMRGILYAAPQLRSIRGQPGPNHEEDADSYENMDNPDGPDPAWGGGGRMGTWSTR

UniProt P26951, sequence (P26951 19-378): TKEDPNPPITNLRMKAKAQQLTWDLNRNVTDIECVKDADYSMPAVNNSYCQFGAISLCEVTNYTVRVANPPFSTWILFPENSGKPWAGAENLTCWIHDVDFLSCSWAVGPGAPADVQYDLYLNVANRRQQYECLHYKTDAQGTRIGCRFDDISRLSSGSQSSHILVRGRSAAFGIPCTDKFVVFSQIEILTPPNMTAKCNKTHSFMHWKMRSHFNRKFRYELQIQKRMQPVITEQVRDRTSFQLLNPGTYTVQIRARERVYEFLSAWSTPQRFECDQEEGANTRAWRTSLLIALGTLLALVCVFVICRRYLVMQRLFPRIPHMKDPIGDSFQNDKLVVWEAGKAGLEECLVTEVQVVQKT

Row | Substance | lysis of AML primary blasts by CD123·CAR+ CIK cell populations (cytotoxic assay) [1] | lysis of THP-1 AML cell line by CD123·CAR+ CIK cell populations (cytotoxic assay) [1] | lysis of ALL primary blasts by CD19·CAR+ CIK cell populations (cytotoxic assay) [2] | lysis of REH ALL cell line by CD19·CAR+ CIK cell populations (cytotoxic assay) [2]
1 | CD123·CAR (anti-CD123 chimeric antigen receptor: scFv from mAb 7G3 in frame with CH2CH3-CD28-OX40-ζ), expressed on CIK cells (from UniProt P10747 153-220; P43489 242-277; P20963 52-163) | 60% | 85% | – | –
2 | CD19·CAR (anti-CD19 chimeric antigen receptor: VL and VH of clone FMC63 in frame with CH2CH3-CD28-OX40-ζ), expressed on CIK cells (from UniProt P10747 153-220; P43489 242-277; P20963 52-163) | – | – | 56.8% | 80%
